Measurements: patent publication EP1947117A2 (THE UNITED STATES GOVERNMENT as represented by THE …, dated 2008)

Experiments:
[1] = target: hCG receptor on MA-10 cells (transformed murine Leydig cells) (murine, UniProt P30730 27-700); assay: cell-based or functional assay
[2] = target: human TSH receptor on CHO cells (CHO-hTSHR clone JP09) (human, UniProt P16473 21-764); assay: cell-based or functional assay

Chain of hCG receptor on MA-10 cells (transformed murine Leydig cells) (P30730 27-700): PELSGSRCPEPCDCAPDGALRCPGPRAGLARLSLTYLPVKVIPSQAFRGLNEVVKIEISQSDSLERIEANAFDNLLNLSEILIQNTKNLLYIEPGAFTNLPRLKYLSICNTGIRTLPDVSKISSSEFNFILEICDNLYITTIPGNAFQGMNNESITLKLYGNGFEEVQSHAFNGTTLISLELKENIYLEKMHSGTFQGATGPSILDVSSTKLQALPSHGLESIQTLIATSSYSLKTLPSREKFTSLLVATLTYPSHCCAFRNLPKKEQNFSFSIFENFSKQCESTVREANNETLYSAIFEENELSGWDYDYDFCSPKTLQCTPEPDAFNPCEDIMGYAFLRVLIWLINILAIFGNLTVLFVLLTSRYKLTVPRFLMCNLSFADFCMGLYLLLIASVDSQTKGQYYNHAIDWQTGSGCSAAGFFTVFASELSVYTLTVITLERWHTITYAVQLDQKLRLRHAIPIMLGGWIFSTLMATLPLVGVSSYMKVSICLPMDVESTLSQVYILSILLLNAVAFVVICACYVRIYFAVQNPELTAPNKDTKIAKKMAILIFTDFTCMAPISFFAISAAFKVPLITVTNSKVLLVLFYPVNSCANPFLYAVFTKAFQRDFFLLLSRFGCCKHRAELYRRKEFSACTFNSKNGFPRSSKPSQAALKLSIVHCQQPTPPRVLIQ

Progesterone synthesis in MA 10 cells, EC50 [1] [ng/mL] | cAMP stimulation in JP09 cells, EC50 [2] [ng/mL] | cAMP stimulation in JP09 cells, relative potency (WT=1) [2] | Binder
6.9 |  |  | WT-hCG (wild-type recombinant human chorionic gonadotropin) (ligand) chain 1: not shown chain 2: SKEPLRPRCRPINATLAVEKEGCPVCITVNTTICAGYCPTMTRVLQGVLPALPQVVCNYRDVRFESIRLPGCPRGVNPVVSYAVALSCQCALCRRSTTDCGGPKDHPLTCDDPRFQDSSSSKAPPPSLPSPSRLPGPSDTPILPQ
 | 6.7 | 1 fold (WT=1) | WT-hTSH (wild-type recombinant human thyroid stimulating hormone) (ligand) chain 1: not shown chain 2: FCIPTEYTMHIERRECAYCLTINTTICAGYCMTRDINGKLFLPKYALSQDVCTYRDFIYRTVEIPGCPLHVAPYFSYPVALSCKCGKCNTDYSDCIHEAIKTNYCTKPQKSY
